For assay [1], the target named is Inactivated Venezuelan equine encephalitis (VEE) whole virus antigen, strain TC-83 (Venezuelan equine encephalitis virus, strain TC-83) (UniProt P05674). The assay can be described thus: ELISA, HB2151 whole cell lysate, wells with and without VEE whole virus antigen. Background: An ELISA detects its analyte on a solid surface through an enzyme-linked reagent.
Assay [2] shares this target.
Assay [3] has the same target. This is another data set of the same source.
Assay [4] shares this target. Nature of the assay: ELISA, […], in triplicate, […].
The target is the same in assay [5]. Nature of the assay: ELISA of whole cell lysates on VEE antigen (FIG. 10).

Numbering of substitutions follows the chain as printed.

Sequence of UniProt P05674 (P05674 335-757 limits assumed): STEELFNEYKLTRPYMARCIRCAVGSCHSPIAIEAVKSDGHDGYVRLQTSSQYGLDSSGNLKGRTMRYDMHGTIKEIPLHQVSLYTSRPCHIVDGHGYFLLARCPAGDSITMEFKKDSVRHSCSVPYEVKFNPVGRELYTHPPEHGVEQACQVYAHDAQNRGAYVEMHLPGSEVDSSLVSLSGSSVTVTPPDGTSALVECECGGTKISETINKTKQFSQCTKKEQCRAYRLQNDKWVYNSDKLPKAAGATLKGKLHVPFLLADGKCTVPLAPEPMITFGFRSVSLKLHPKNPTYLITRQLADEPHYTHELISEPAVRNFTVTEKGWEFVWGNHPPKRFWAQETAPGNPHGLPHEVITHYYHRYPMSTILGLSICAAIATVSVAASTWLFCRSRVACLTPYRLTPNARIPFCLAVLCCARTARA

B1: MA116-6 ScFv antibody (scFv)
scFv: MAQVQLQESGPELVKPGASVKISCKASGYTFTDYHVHWVKGKPGQGLEWIGMTYPGFDDTNYSETFKGKATLTVDTSSNTVYMQLSSLTSEDTAVYFCARGVGLDYWGQGTTVTVSSGGGGSGGGGSGGGGSDSSSLVSKFVSTSIGDRIRITCKASQDVDTAVGWYQQRPGQSPKLLIFWSSTRHTGVPDRFTGSGSGTDFTLTISNVQSEDLADYFCHQYSSYPFTFGSGTKLEIKRAAAGAPVPYPDPLEPRAA
The molecule B1 gave a fold retention, with VEE antigen over without in assay [1] of over 2.5 fold.

B2: A116 ScFv antibody (recombinant single chain variable fragment cloned from hybridoma 1A4A1) (scFv)
scFv: B1 scFv with D59N, S77F, N79T, A94V, Y225H
In assay [2], B2 came in with a fold absorbance over the HB2151 negative control lysate of 4 fold. This molecule also showed a fold absorbance, wells with VEE antigen over wells without in assay [3] of over 2 fold.

B3: MA116-15 ScFv antibody (mutagenized, repaired A116) (scFv)
scFv: MAQVQLQESGPELVKPGASVKISCKASGYTFTDYHVHWVKGKPGQGLEWIGMTYPGFDNTNYSETFKGKATLTVDTSSNTVYMQLSSLTSEDTAVYFCARGVGLDYWGQGTTVTVSSGGGGSGGGGSGGGGSDIELTQSPNSLSTSIGDRIRITCKASQDVDTAVGWYQQRPGQSPKLLIFWSSTRHTGVPDRFTGSGSGTDFTLTISNVQSEDLADYFCHQYSSYPFTFGSGTKLEIKRAAAGAPVPYPDPLEPRAA
As to B3, the fold retention, with VEE antigen over without in assay [1] is over 2.5 fold. The molecule also displayed a fold ELISA reactivity against the original A116 clone in assay [4] of 4 fold. Besides, in assay [5], the fold ELISA reactivity against the parental A116 clone is over 4 fold.

B4: MA116-4 ScFv antibody (scFv)
scFv: B3 scFv with D133A, I134S, E135S, L136S, T137L, Q138S, S139L, P140S, E213D
Molecule B4 displayed a fold retention, with VEE antigen over without in assay [1] of over 2.5 fold.

The record behind these values is patent US20030100060A1.
